To fix the notation:
B1: Phage-34 (peptide, not shown: large carriers)
peptide: MDWCPRHMWNYCFA
modifications: cysteine pairing not given here; also: displayed on phage as fusion to pIII, linker and pIII sequence not given here
notes: Clonal phage supernatant
B2: Phage-33 (peptide, not shown: large carriers)
peptide: MDWCPRFMWDECFN
notes: Clonal phage supernatant
B3: Peptide-205 (peptide)
peptide: MCQWDKINYWMDCD
modifications: cysteine pairing not given here; also: biotinylated (site not given here)
notes: PSMA peptide mask (P2)
B4: Peptide-195 (peptide)
peptide: QLPCHYWGEWCPQA
modifications: cysteine pairing not given here; also: biotinylated (site not given here)
notes: PSMA peptide mask (P2)
B5: Peptide-194 (peptide)
peptide: SKLLCVPPWMCYHV
modifications: cysteine pairing not given here; also: biotinylated (site not given here)
notes: PSMA peptide mask (P2)
B6: Peptide-206 (peptide)
peptide: QCVWDLTNYWMNCD
modifications: cysteine pairing not given here; also: biotinylated (site not given here)
notes: PSMA peptide mask (P2)
B7: Peptide-204 (peptide)
peptide: QCTWNEKTWWMECE
modifications: cysteine pairing not given here; also: biotinylated (site not given here)
notes: PSMA peptide mask (P2)
B8: Peptide-212 (peptide)
peptide: HCKFHDYHSWYVCY
modifications: cysteine pairing not given here; also: biotinylated, site not given here
notes: PSMA peptide mask (P2)
B9: Peptide-209 (peptide)
peptide: QCVWDRGTWWMACD
modifications: cysteine pairing not given here; also: biotinylated, site not given here
notes: PSMA peptide mask (P2)
B10: Peptide-200 (peptide)
peptide: ILPCHWYTSDCPQH
modifications: cysteine pairing not given here; also: biotinylated (site not given here)
notes: PSMA peptide mask (P2)
B11: Peptide-207 (peptide)
peptide: DCHWNKATWWMDCE
modifications: cysteine pairing not given here; also: biotinylated, site not given here
notes: PSMA peptide mask (P2)
B12: Peptide-203 (peptide)
peptide: QCVWDNFNYWMDCD
modifications: cysteine pairing not given here; also: biotinylated (site not given here)
notes: PSMA peptide mask (P2)
B13: Peptide-202 (peptide)
peptide: MCQWDELNYWMDCD
modifications: cysteine pairing not given here; also: biotinylated (site not given here)
notes: PSMA peptide mask (P2)
B14: Peptide-198 (peptide)
peptide: LTRCVPDWMCYRAV
modifications: cysteine pairing not given here; also: biotinylated (site not given here)
notes: PSMA peptide mask (P2)
B15: Phage-4009 (peptide)
peptide: GPKLCLPMWMCQGF
B16: Phage-489 (peptide, not shown: large carriers)
peptide: YCEGHSQEYLWKCL
notes: Clonal phage of the Peptide-87 optimisation library, tested as crude supernatant
B17: Phage-499 (peptide, not shown: large carriers)
peptide: YCEGHAPEYMAKCL
notes: as for B16
B18: Phage-486 (peptide, not shown: large carriers)
peptide: YCEGHLPEYLGKCL
notes: as for B16
B19: Phage-488 (peptide, not shown: large carriers)
peptide: YCEGHLPEYLAKCL
notes: as for B16
B20: Phage-492 (peptide, not shown: large carriers)
peptide: YCWSHSPPFIKKCY
notes: as for B16
B21: Phage-495 (peptide, not shown: large carriers)
peptide: YCEGHLPEYIQKCL
notes: as for B16
B22: Phage-496 (peptide, not shown: large carriers)
peptide: YCEGHLPEYIWKCL
notes: as for B16
B23: Phage-491 (peptide, not shown: large carriers)
peptide: HCSGHHWLQVWKCF
notes: as for B16
B24: Phage-487 (peptide, not shown: large carriers)
peptide: YCEGHLPEYREKCL
notes: as for B16
B25: Phage-493 (peptide, not shown: large carriers)
peptide: YCEGHLPEYRNKCL
notes: as for B16
B26: Phage-497 (peptide, not shown: large carriers)
peptide: YCEGHAPEYIGKCL
notes: as for B16
B27: Phage-494 (peptide, not shown: large carriers)
peptide: YCEGHLPEYLEKCV
notes: as for B16
B28: Phage-498 (peptide, not shown: large carriers)
peptide: YCDGHSPIYMWKCL
notes: as for B16
B29: Phage-490 (peptide, not shown: large carriers)
peptide: YCEGHSSEYIQKCL
notes: as for B16

Where no end group is shown, it is not given here.

We go through 29 molecules from patent publication US20260242478A1 (published 2026).

The target of the first test is T1, anti-CD28 scFv (VH - linker 1 - VL) (biotinylated (site not stated)). Briefly: same phage ELISA, wells pre-incubated with soluble CD28 (competitor).
T1 sequence (scFv, as listed by the source): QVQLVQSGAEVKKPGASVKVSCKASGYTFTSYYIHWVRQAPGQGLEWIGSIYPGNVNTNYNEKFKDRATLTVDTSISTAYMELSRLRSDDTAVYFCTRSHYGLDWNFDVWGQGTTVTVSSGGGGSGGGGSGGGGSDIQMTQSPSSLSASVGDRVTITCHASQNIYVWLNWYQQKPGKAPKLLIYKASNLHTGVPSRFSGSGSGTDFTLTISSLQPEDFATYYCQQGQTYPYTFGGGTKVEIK
For B1, the “CD28 scFv signal in presence of CD28” value was determined as 0.242.

On to B2, for which the “CD28 scFv signal in presence of CD28” value came to 0.256.

The target of the next test is T2, PSMA Fab (SEQ ID NOs: 19, 20).
T2 construct: also called 006 PSMA Fab; anti-PSMA Fab
Briefly: competition ELISA, peptide titrated against 0.3 nM PSMA Fab on captured biotinylated PSMA.
Protocol: The concentration of peptide required to reduce the maximum signal by 50% (IC₅₀) was calculated in Graphpad Prism software.
In turn, B3 came in with an IC50 of 5.52 µM. The molecule B4 displayed an IC50 of 19.3 µM. B5 yielded a 50% inhibitory concentration (IC50) of 10.3 µM. Still for that read-out and setting: with B6 the figure was 28.7 µM; with B7, 9.07 µM.

As to B8, the half-inhibitory concentration (IC50) was 6.39 µM. The same measure, in the same setting: with B9 the figure was 10.2 µM. The same measure, in the same setting: with B10 the figure was 12.2 µM; with B11, 9.86 µM.

With B12, the half-maximal inhibitory concentration (IC50) came out at 36.1 µM. B13 came in with an IC50 of 11 µM. For B14, the IC50 turned out to be 18.9 µM.

Another test concerns the target T3, 006 PSMA Fab.
T3 construct: also called Anti-PSMA Fab
Briefly: clonal phage ELISA; biotinylated PSMA Fab on neutravidin plate, bound phage detected with anti-M13-HRP.
Protocol: (§1) Clonal phage were harvested as crude supernatants and screened via standard ELISAs. […] Prior to the addition of clonal phage. wells were incubated with blocking buffer and PSMA antigen or blocking buffer alone. Without washing or aspirating, clonal phage supernatants were then added to the wells and incubated for a short time. Wells were then washed followed by detection of bound phage using a horse radish conjugated anti-M13 antibody.
Turning to B15, the “Phage binding ELISA signal, Anti-PSMA Fab” value is 0.459.

Another test concerns the target T3, 006 PSMA Fab. Briefly: clonal phage ELISA; biotinylated PSMA Fab on neutravidin plate, PSMA antigen as competitor, anti-M13-HRP.
Protocol: as §1
On to B15, for which the “phage binding ELISA signal (Anti-PSMA Fab, wells pre-incubated with PSMA antigen)” value came out at 0.0611.

A further test has as its target T4, Anti-CD28 Fab (SEQ ID NOs: 696, 697).
T4 construct: Biotinylated and captured on neutravidin coated plates in the phage ELISA
Briefly: phage binding ELISA; Fab-coated wells pre-incubated with CD28 antigen as competitor, anti-M13 HRP detection.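 Further: crude clonal phage supernatants from panned colonies added to wells after blocking buffer plus CD28 treatment, bound phage measured after a brief incubation and washing.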
Protocol: After panning, phage infected bacteria were plated out and colonies picked into 96 well blocks. Clonal phage was then amplified and separated from bacterial cells via centrifugation.
Clonal phage were harvested as crude supematants and screened via standard ELISAs. […] Prior to the addition of clonal phage, wells were incubated with blocking buffer and CD28 antigen or blocking buffer alone. Without washing or aspirating, clonal phage supematants were then added to the wells and incubated for a short time. Wells were then washed followed by detection of bound phage using a horse radish conjugated anti-M13 antibody. Clonal phage of interest were then sent for sequence analysis.
Turning to B16, the “Anti-CD28 Fab signal in the presence of CD28 (phage binding ELISA)” value came to 0.07. Same read-out and setting: with B17 the figure was 0.08; with B18, 0.08. Same read-out and setting: with B19 the figure was 0.1; with B20, 0.06; with B21, 0.08. Still for that read-out and setting: with B22 the figure was 0.09; with B23, 0.07; with B24, 0.07.

On to B25, for which the “Anti-CD28 Fab signal in the presence of CD28 (phage binding ELISA)” value worked out at 0.17. The same measure, in the same setting: with B26 the figure was 0.07; with B27, 0.06; with B28, 0.09. Still for that read-out and setting: with B29 the figure was 0.1.

For the next test, the target named is T1, anti-CD28 scFv (VH - linker 1 - VL). Briefly: phage ELISA; biotinylated anti-CD28 scFv on neutravidin plate, clonal phage supernatant, anti-M13-HRP detection.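 Further: before phage addition, wells were pretreated with soluble CD28 protein in blocking buffer, or with blocking buffer only as the comparison, then phage were added without washing.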
As for B1, the “CD28 scFv signal” value is 2.71.

Take B2: the “CD28 scFv signal” value is 2.68.

For another test, the target named is T4, Anti-CD28 Fab (SEQ ID NOs: 696, 697). Briefly: phage binding ELISA; biotinylated anti-CD28 Fab on neutravidin plate, clonal phage supernatant, anti-M13 HRP detection.
T4 sequence (VH, as listed by the source, chain 1 of 2): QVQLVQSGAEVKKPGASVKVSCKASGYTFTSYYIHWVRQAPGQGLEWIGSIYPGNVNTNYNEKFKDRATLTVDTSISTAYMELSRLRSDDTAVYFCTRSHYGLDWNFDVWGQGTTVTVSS
T4 sequence (VL, as listed by the source, chain 2 of 2): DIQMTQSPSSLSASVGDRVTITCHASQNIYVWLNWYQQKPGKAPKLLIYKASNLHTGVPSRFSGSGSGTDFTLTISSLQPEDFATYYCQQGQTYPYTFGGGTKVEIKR
With B16, the “Anti-CD28 Fab signal (phage binding ELISA)” value turned out to be 2.36.

For B17, the “Anti-CD28 Fab signal (phage binding ELISA)” value turned out to be 2.47. In the case of B18, the “Anti-CD28 Fab signal (phage binding ELISA)” value was determined as 1.23. The same measure, in the same setting: with B19 the figure was 2.34; with B20, 2.06; with B21, 1.9.

B22: the “Anti-CD28 Fab signal (phage binding ELISA)” value worked out at 2.32. For the molecule B23, the “Anti-CD28 Fab signal (phage binding ELISA)” value is 2.31. Still for that read-out and setting: with B24 the figure was 1.96. On the same count and under the same terms, with B25 the figure was 2.38. Same read-out and setting: with B26 the figure was 2.1; with B27, 2.11. With B28, the “Anti-CD28 Fab signal (phage binding ELISA)” value amounted to 2.47. Consider B29, for which the “Anti-CD28 Fab signal (phage binding ELISA)” value came to 2.25.
